Data as given in the supplement of paper PMC12636428.

These sequences were tested on Saccharomyces cerevisiae (assay: transcriptional activation domain activity (GFP:mCherry ratio, weighted mean of sorted bins, harmonized to initial dataset scale) (arbitrary fluorescence ratio units); higher = stronger transcriptional activation). Settings: beta-estradiol 1 µM; induction time 4 h.
In short: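 Barcoded protein tiles fused to an estradiol-inducible synthetic transcription factor were integrated at the yeast URA3 locus, in diploids carrying a GFP reporter. Cultures were diluted 1:5 into SC with 1 uM beta-estradiol, held 4 hours at 30 °C, sorted into 8 bins by GFP:mCherry ratio, and barcodes sequenced. Tiles under 50 reads were discarded. Activation activity is the read-weighted mean of bin median fluorescence, averaged across barcodes, then linearly mapped onto the initial dataset scale.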
For “MKFLFILCCHILPYVPIFYLMSLSSIFLHFTLLFIYLITLFYTFAYIFIFSFY”, the “transcriptional activation domain activity” value was 50400. “MKFLPFRFADLQANNFILFYFLYLMLACYLYPICIYTGKLFVIFPFIFLFFVP” was tested, and the “transcriptional activation domain activity” value was 55000. “MKFVFVPFAVSPPKPFFLLLFLLLFFTSTFCAFSISPFSLFCSSLFYCSRFLL” was tested, and the “transcriptional activation domain activity” value was 52400. For “MKGIRLYFKYVLLHVLLLPPSLLPFFFPLSPLFYMSILMGFSSPFFFFFSFIH”, the “transcriptional activation domain activity” value was 53000. For “MKGIRLYFRYVLLHVLLLLPSLPFFFPYLCRRFTCSFMNILIGFLFCFFLYIC”, the “transcriptional activation domain activity” value was 55300. With “MKGVCLKVGTTKPKKPNSGERKIARVRLSSGKVITAYIQGEGHNVQQHSVVLV” the “transcriptional activation domain activity” value was 51000. With “MKGVCLKVGVVRPKKPNSGERKTARVRLSNGRQVTAYISGEGHNIQQHSVVLV” the “transcriptional activation domain activity” value was 53500. In the case of “MKHETLFFLFCRSLTRFFPMFGASFFFVLFLDLFVFVFCVVYGYSRFIFFLFV”, the “transcriptional activation domain activity” value is reported as 50300. In the case of “MKIHECTGVVYIGNVLCHKQPQVLLGLMFFMDLTLFFLDSYLWYIICNTIFSV”, the “transcriptional activation domain activity” value is reported as 68700. “MKILRLYLTKLPFLARPILTQLLQESLFRYGIVRELGIYLRQNYFDNTGRFTL” was tested, and the “transcriptional activation domain activity” value was 83400. For “MKILSFLCTYSLSFTLTIPNSLLSFLRTLFNFTNNYKYMILLLLGYLCLIGLF”, the “transcriptional activation domain activity” value was 35600. For “MKILYCILCMLFFFLFLSFYIQKKILFSLTCVFTLPPLSLFLFFFLFIVQILC”, the “transcriptional activation domain activity” value was 55700. For “MKIVWFSGPKVCTLFIFLLFCFLLSCCSAFLVSFFCWFLSCWLFLLAFGLLFF”, the “transcriptional activation domain activity” value was 49400. For “MKKKKGEGMKKERRRRGGEGGGKGALRREKKGTGTGKDGEREKQEKGEEGKCN”, the “transcriptional activation domain activity” value was 29900. For “MKKLEKLLLSNDLTSQKKAFLVLCRMHYLTSSLLSSCVVVLVVGWSSIQKNTT”, the “transcriptional activation domain activity” value was 63400. “MKLMLSLYLLRMIFSLLVFFLLSGNVVATLFGFSMCFLIRFGWCCVLSYVLSF” was tested, and the “transcriptional activation domain activity” value was 68500. “MKLPWDDSVTIFLVNYVDFLLLFPFVLLMEFIFDDLPWLSLYVLKHYYNILYM” was tested, and the “transcriptional activation domain activity” value was 38600. In the case of “MKLVCHSLQLHFLSILVLEDLLIATLRVAQSCITAFFWRNHFSFTCLCLLTML”, the “transcriptional activation domain activity” value is reported as 63200. For “MKLVRFLMKLNNETVTIELKNGSVIHGTITSVDPQMNTHLKSVKLSLRTAAPG”, the “transcriptional activation domain activity” value was 24700. “MKPITPKLEEQEPAAYGAAASAATVPTTKRKCVSSACVPCRRRKSKVTPRNPL” was tested, and the “transcriptional activation domain activity” value was 34500. With “MKQHEYFHLGINLFCPPFFILKSYKEAILSLLLAFKILEIWTFFFIFPLFFLF” the “transcriptional activation domain activity” value was 47800. For “MKRSAAALVSYPSSDEETSEAQAKSEPIKKKKKLPQLSSSLVVPVPVDNPALH”, the “transcriptional activation domain activity” value was 41300. “MKRVLHVRNVARVNSGGKVRSVSALVVVGNGQGAAGYGEGRAVDAAAAVQKAT” was tested, and the “transcriptional activation domain activity” value was 54500. For “MKRVYKLNTCLFFYNSYNPFHIYFYSFIHSNMPAMYHLFSILLLWLNCLSLVQ”, the “transcriptional activation domain activity” value was 44500. With “MKSHDLFFFLLLLFQLTSFSSIQLFPAVRVILHVLSHLFMVLHAYCCLPPFIF” the “transcriptional activation domain activity” value was 64400. “MKSLPFGIHTAVCDLISLLLLLLLFFFFFFLLASIWVLDNFFPFFPFSRHLYS” was tested, and the “transcriptional activation domain activity” value was 37500. For “MKSVVFCFLPLFFFCHSSKANHSSTFISMPPFFSLFFFFFPFSHFPTLSVLFG”, the “transcriptional activation domain activity” value was 50600. For “MKTINILTTPPLHIFFSTPIVYSLFLLLNFFPIFFFFFFFFLYSLPFFFFIVA”, the “transcriptional activation domain activity” value was 52100. For “MKTPPPQLGFFVGVLVLYAFFFIFLFFYFLFYGDIHLKQEDIIYVWNTYWAIW”, the “transcriptional activation domain activity” value was 20200. For “MKVDLNKHPSCRRIIWVGYTKICTFLIPDKLLVYLSLTTQARRIAWREKLTLF”, the “transcriptional activation domain activity” value was 59600. For “MKVDSYTDYLTGIFIHCGLYDTNHDPNYPALYYRCVLLDSTWLVGLLTCFLWL”, the “transcriptional activation domain activity” value was 65100. With “MKVFCSSFPFSNPILFYFSLLQIIFDYWLYNFMGSFYFWLPLAPFFFFFFLVL” the “transcriptional activation domain activity” value was 47500. For “MKVNRPFACSHEGCEKAFARKGELTKHERLHSGERPFACSHCEKAFGRSDARK”, the “transcriptional activation domain activity” value was 16000. “MLAGAFLPLLFGFFFFSFPTSHTPPFHLLPPGFQFLPVSTSFSYFFCFCFFFP” was tested, and the “transcriptional activation domain activity” value was 39100. With “MLAKGVWLACMFFFFFFFRLSFLNGSWCEYFYYLLCFFNSSYFFSSLSLRISF” the “transcriptional activation domain activity” value was 48300. For “MLAMISFFMYPPPLLFFFALWLSFSLFSIHKPPWLLFQNVHFYVLFLFFSFLA”, the “transcriptional activation domain activity” value was 36300. With “MLARFKWSMWRMSLVRALRASLNITLFFYFLFPPRYSYVFLFLFLSFFLFFFS” the “transcriptional activation domain activity” value was 32500. For “MLAWIYGVFFSRSIMYCPLILLITCALDFHFFYFSYLFLWGLFRLRGYIYHGW”, the “transcriptional activation domain activity” value was 52000. In the case of “MLAYRSQQGWSEGDFLACRWFFSFFFPLFLPLSPPSFLCPFSFLFLFFLLLHL”, the “transcriptional activation domain activity” value is reported as 45300. “MLAYTHFLIMLDRDILNICCVIYFYCLVFICLLLTFLLLIAPLNTCVGLCWKG” was tested, and the “transcriptional activation domain activity” value was 54400. For “MLCADLFFRFVLVKILVFILYDYGRGECDIVIMLVFFFFFPPPPPFFSFFFLF”, the “transcriptional activation domain activity” value was 65300. “MLCDATSGLWILLCFFFFCVVLFVLIVSVFSTLPMWMSYSFFFLFVGFDLLLS” was tested, and the “transcriptional activation domain activity” value was 35600.
